Experimental data from paper PMC12599289, “Kinetic and homology model analysis of diaminopimelate decarboxylase from Cyanothece sp. ATCC 51142: unveiling a key enzyme in lysine biosynthesis” (Bioscience Reports, 2025).

Substrate: NC(CCCC(N)C(=O)O)C(=O)O
Assay: purified protein
Assay type: biochemical, Crocosphaera subtropica
Details: 0.1 mM PLP, 20 mM Tris-HCl pH 8.0, methods say room temperature, abstract says 30°C, DAP 0.5-15 mM

B1: CsDAPDC (Crocosphaera subtropica ATCC 51142) (protein)
chain: MIATPTKTPHTGQDYLKIKINATDSTKRSPNQSLLPLTANINAHDHLEIGGCDLQTLVEQFGSPLYILDEMTLRTACRQYRDNFQTYYKGESQVIYASKAWSCLAVVGVIARENLGFDVVSGGELYTTQKALTQLGYSCQEIAKKIYFHGNNKSEAELKEAIKVGCTIIVDNWLELQTLAQLGNDTPNLTIPILIRLTPGIECHTHEYIRTGHLDSKFGFDPNQLEAVFTYISQQTSLDCRGLHAHIGSQIFERQPHQDLAGVLVEWLKIGREYGLNLSELNIGGGLGICYTEEDDPPSIEEWVKAVSEAVMKACQRCEIDLPKLIAEPGRSLIGSACVTAYTVGSRKEIPELRTYIAVDGGMSDNPRPITYQSLYRVALANRMSAEISETVTIAGKHCESGDIVIKDAQLPQTHPGDILVIMGTGAYNYSMASNYNRLPRPAAVMVNQGEANLIVRRETYDDLIRQDCLPQRLLP
notes: tag removal not mentioned; dimer only from homology model
Question: Which results are given for B1?
Answer: Km: 1200 ± 170 µM; kcat: 1.68 s⁻¹
